The target in one experiment is HLA-B*53:01. Description: IEDB peptide-MHC binding, purified MHC/competitive/fluorescence; filed as Kd, often an IC50 or EC50 that approximates it; ≥ and ≤ were set here for values at or beyond the usual limits of such assays. The note with it: source organism: Cryptosporidium parvum Iowa II.
Experiment [1] concerns the target HLA-A*01:01. Described as above. The following applies: source organism: Cryptosporidium parvum Iowa II.
Another experiment has as its target HLA-A*68:02. The description is as above. The following applies: source organism: Cryptosporidium parvum Iowa II.
For another experiment, the target named is HLA-B*39:01. Described as above. The following applies: source organism: Cryptosporidium parvum Iowa II.
A further experiment concerns the target HLA-B*44:02. The description is as above. The note with it: source organism: Cryptosporidium parvum Iowa II.
The target of a further experiment is HLA-A*26:01. The description is as above. The following applies: source organism: Cryptosporidium parvum Iowa II.
Experiment [2] has as its target HLA-A*11:01. The description is as above. The note with it: source organism: Cryptosporidium parvum Iowa II.
For another experiment, the target named is HLA-A*30:02. The experiment is described as above. The following applies: source organism: Cryptosporidium parvum Iowa II.
The next experiment addresses HLA-B*14:02. The description is as above. The note with it: source organism: Cryptosporidium parvum Iowa II.
For the next experiment, the target named is HLA-A*23:01. The description is as above. The note with it: source organism: Cryptosporidium parvum Iowa II.
For experiment [3], the target named is HLA-B*27:05. The experiment is described as above. The note with it: source organism: Cryptosporidium parvum Iowa II.
The target in experiment [4] is HLA-B*40:01. The experiment is described as above. The note with it: source organism: Cryptosporidium parvum Iowa II.
The target of the next experiment is HLA-A*24:03. The description is as above. The following applies: source organism: Cryptosporidium parvum Iowa II.
A further experiment concerns the target HLA-B*07:02. Described as above. The note with it: source organism: Cryptosporidium parvum Iowa II.
The next experiment deals with HLA-B*08:01. The experiment is described as above. The note with it: source organism: Cryptosporidium parvum Iowa II.
For a further experiment, the target named is HLA-A*29:02. The experiment is described as above. The following applies: source organism: Cryptosporidium parvum Iowa II.
The next experiment addresses HLA-A*66:01. Described as above. The following applies: source organism: Cryptosporidium parvum Iowa II.
Experiment [5] deals with HLA-A*03:01. Described as above. The following applies: source organism: Cryptosporidium parvum Iowa II.
Experiment [6] has as its target HLA-B*51:01. Described as above. The following applies: source organism: Cryptosporidium parvum Iowa II.
A further experiment deals with HLA-B*15:01. Described as above.
A further experiment deals with HLA-B*27:03. Described as above. The following applies: source organism: Cryptosporidium parvum Iowa II.
Experiment [7] addresses HLA-B*46:01. The description is as above. The following applies: source organism: Cryptosporidium parvum Iowa II.
The next experiment concerns the target HLA-A*30:01. The experiment is described as above. The note with it: source organism: Cryptosporidium parvum Iowa II.
The target of experiment [8] is HLA-B*18:01. Described as above. The following applies: source organism: Cryptosporidium parvum Iowa II.
The next experiment concerns the target HLA-C*12:03. Description: IEDB peptide-MHC binding, purified MHC/direct/fluorescence; filed as Kd, often an IC50 or EC50 that approximates it; ≥ and ≤ were set here for values at or beyond the usual limits of such assays. The following applies: source organism: Cryptosporidium parvum Iowa II.
The target of experiment [9] is HLA-A*01:01. Described as above. The note with it: source organism: Mycobacterium tuberculosis.
For another experiment, the target named is HLA-B*48:01. The experiment is described as above. The following applies: source organism: Mycobacterium tuberculosis.
Another experiment deals with HLA-B*57:01. The experiment is described as above. The following applies: source organism: Mycobacterium tuberculosis.
In experiment [10] the target is HLA-A*11:01. Described as above. The note with it: source organism: Mycobacterium tuberculosis.
For a further experiment, the target named is HLA-B*15:17. Described as above. The note with it: source organism: Mycobacterium tuberculosis.
The target of experiment [11] is HLA-B*27:05. The experiment is described as above. The following applies: source organism: Mycobacterium tuberculosis.
The target of experiment [12] is HLA-B*40:01. The description is as above. The following applies: source organism: Mycobacterium tuberculosis.
The target of the next experiment is HLA-A*31:01. The description is as above. The note with it: source organism: Mycobacterium tuberculosis.
For experiment [13], the target named is HLA-A*03:01. The experiment is described as above. The following applies: source organism: Mycobacterium tuberculosis.
The next experiment addresses HLA-A*69:01. The description is as above. The note with it: source organism: Mycobacterium tuberculosis.
The target of a further experiment is HLA-B*58:01. Described as above. The note with it: source organism: Mycobacterium tuberculosis.
Experiment [14] addresses HLA-B*51:01. The description is as above. The note with it: source organism: Mycobacterium tuberculosis.
For the next experiment, the target named is HLA-A*02:01. Described as above. The following applies: source organism: Mycobacterium tuberculosis.
The target in experiment [15] is HLA-B*46:01. Described as above. The following applies: source organism: Mycobacterium tuberculosis.
Experiment [16] has as its target HLA-B*18:01. Described as above. The following applies: source organism: Mycobacterium tuberculosis.
For another experiment, the target named is HLA-B*38:01. Described as above. The note with it: source organism: Mycobacterium tuberculosis str. Haarlem.

Bounds are passed on as bounds.

As usually defined, the Kd is the free concentration of one partner at which half of the binding sites on the other are occupied at equilibrium, for simple one-to-one binding. Lower therefore signals higher affinity. As to FTWQHNYYL, the Kd with HLA-B*53:01 is no less than 5 µM; with HLA-A*01:01 [1] it was 463 nM; with HLA-A*68:02, no more than 1 nM; with HLA-B*39:01, no less than 20 µM; with HLA-B*44:02, no less than 5 µM; in the experiment with HLA-A*26:01 it was no less than 20 µM. Further, the Kd in the experiment with HLA-A*11:01 [2] was no less than 5 µM; with HLA-A*30:02, no less than 5 µM; with HLA-B*14:02, no less than 20 µM; with HLA-A*23:01 it was 149 nM; with HLA-B*27:05 [3], no less than 5 µM; with HLA-B*40:01 [4], no less than 5 µM. For the same sequence, the Kd with HLA-A*24:03 is 41 nM; with HLA-B*07:02, no less than 5 µM; with HLA-B*08:01, no less than 5 µM; in the experiment with HLA-A*29:02 it was 50.9 nM; with HLA-A*66:01 it was no less than 5 µM; in the experiment with HLA-A*03:01 [5] it was no less than 20 µM. The Kd in the experiment with HLA-B*51:01 [6] was no less than 20 µM; with HLA-B*15:01 (source organism: Cryptosporidium parvum Iowa II), no less than 20 µM; in the experiment with HLA-B*27:03 it was no less than 20 µM; with HLA-B*46:01 [7] it was no less than 20 µM; with HLA-A*30:01, no less than 5 µM; with HLA-B*18:01 [8] it was no less than 20 µM. In the experiment with HLA-C*12:03, this sequence returned a Kd of 335 nM.

Regarding VPRENATAF, the dissociation constant Kd in the experiment with HLA-B*15:01 (source organism: Mycobacterium tuberculosis variant bovis BCG str. Pasteur 1173P2), with HLA-A*01:01 [9], in the experiment with HLA-B*48:01, with HLA-B*57:01, in the experiment with HLA-A*11:01 [10] and in the experiment with HLA-B*15:17 was no less than 20 µM each time. Also, the Kd in the experiment with HLA-B*27:05 [11], with HLA-B*40:01 [12], in the experiment with HLA-A*31:01, with HLA-A*03:01 [13], with HLA-A*69:01 and with HLA-B*58:01 was no less than 20 µM in each case. The dissociation constant (Kd) is no less than 20 µM in the experiment with HLA-B*51:01 [14]; no less than 20 µM with HLA-A*02:01; 15.9 µM with HLA-B*46:01 [15]; 598 nM in the experiment with HLA-B*18:01 [16]; no less than 20 µM in the experiment with HLA-B*38:01.

For the origin of these results see the Immune Epitope Database (IEDB).
